Consider three molecules from article doi:10.1101/2022.10.20.22281069 (medRxiv, 2022).

The target of the assay is PCNA-WT (Proliferating Cell Nuclear Antigen, wild type) (human, UniProt P12004 1-261). The assay can be described thus: ITC. In general terms: ITC needs no label: the signal is the heat of the interaction.
Chain of PCNA-WT (Proliferating Cell Nuclear Antigen, wild type) (P12004 whole entry): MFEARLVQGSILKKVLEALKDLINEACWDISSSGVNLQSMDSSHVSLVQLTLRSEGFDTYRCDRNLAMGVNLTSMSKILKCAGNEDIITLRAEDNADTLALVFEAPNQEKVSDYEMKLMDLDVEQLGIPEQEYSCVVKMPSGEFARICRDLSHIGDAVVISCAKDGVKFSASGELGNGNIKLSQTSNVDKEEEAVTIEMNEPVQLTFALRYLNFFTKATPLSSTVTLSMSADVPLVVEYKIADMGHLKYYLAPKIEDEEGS

B1: FEN1 PIP-box peptide (peptide)
peptide: STQGRLDDFFKVTGSL
On to B1, for which the binding result is “binds”.

B2: RNaseH2B PIP-box peptide (peptide)
peptide: DKSGMKSIDTFFGVKNKKKIGKV
Regarding B2, the binding result is “binds”.

B3: pol δ p66 PIP-box peptide (peptide)
peptide: KANRQVSITGFFQRK
As for B3, the binding result was “binds”.
